T1: Trx-His-OsbZIP47 FL (Oryza sativa) (UniProt Q5Z6N9)
T1 sequence: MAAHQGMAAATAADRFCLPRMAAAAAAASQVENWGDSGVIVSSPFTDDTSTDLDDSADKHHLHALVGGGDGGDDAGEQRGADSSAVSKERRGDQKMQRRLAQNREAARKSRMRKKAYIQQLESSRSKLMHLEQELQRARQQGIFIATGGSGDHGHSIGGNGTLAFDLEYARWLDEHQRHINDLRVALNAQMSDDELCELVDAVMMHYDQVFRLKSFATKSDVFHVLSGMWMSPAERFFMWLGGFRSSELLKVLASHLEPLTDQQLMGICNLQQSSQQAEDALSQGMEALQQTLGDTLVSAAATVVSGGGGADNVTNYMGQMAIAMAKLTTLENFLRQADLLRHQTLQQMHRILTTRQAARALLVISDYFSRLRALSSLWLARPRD

B1: Thioredoxin-His-tagged OsbZIP47FL (natural protein, rice (Oryza sativa), UniProt Q5Z6N9 1-385, looked up)
chain: T1 sequence
notes: full-length CDS, amino acid 1 to 385; also called Trx-His-OsbZIP47 FL; Trx-His OsbZIP47; source: E. coli Rosetta (DE3), pET32a, purified

Key:
[1] = biological target: T1, Trx-His-OsbZIP47 FL (Oryza sativa); experiment: MST; settings: MST: 10 mM HEPES-KOH pH 8.0, 50 mM NaCl, 0.5% Tween-20, 0.5 mM EDTA, 1 mM MgCl2, 10% glycerol, 80 nM protein, DNA 3.05 nM-100 uM, temperature not stated, EMSA: …
[2] = biological target: the molecule itself; experiment: non-reducing SDS-PAGE; purified protein treated with 2 mM diamide, with 20 mM DTT, or with 2 mM diamide followed by 20 mM DTT; non-reducing 10% SDS-PAGE

Molecule | Kd ([1]; oxidized, 1 mM oxidized glutathione) | Kd ([1]; reduced, 20 mM DTT) | binding result [2]
CAGCTGGCCCTGACGTCAGCAACCGG (double strand) [OsFCP1 locus EMSA-371] | 2.16 µM | 0.815 µM | 
B1 |  |  | binds
